Results taken from paper PMC3665079 (Biochemistry, 2013).
Where two headings read alike, the source gives them in different places. Blank lines part the entries; values can stand above or below the molecule they belong to.

Columns and labels:
[1] = target: DnaT N-terminal core domain (E. coli); assay: fluorescence polarisation
[2] = target: DnaT N-terminal core domain (E. coli); assay: fluorescence polarisation; remark: listed apart in the source
[3] = target: the molecule itself; assay: fluorescence polarisation
[4] = target: the molecule itself; assay: AUC

dH [1]: -4.6 kcal/mol
dH [2]: 2.2 kcal/mol
Molecule: DnaT N-terminal core domain (domain or fragment)

B1: Escherichia coli DnaT protein (natural protein, E. coli, UniProt P0A8J2 1-179, looked up)
chain: MSSRVLTPDVVGIDALVHDHQTVLAKAEGGVVAVFANNAPAFYAVTPARLAELLALEEKLARPGSDVALDDQLYQEPQAAPVAVPMGKFAMYPDWQPDADFIRLAALWGVALREPVTTEELASFIAYWQAEGKVFHHVQWQQKLARSLQIGRASNGGLPKRDVNTVSEPDSQIPPGFRG
dH [3]: -15 ± 2 kcal/mol
stoichiometry N [4]: 3
